± gives the standard deviation of the averaged measurements.
What was measured:
hTERT-HMEC = assay: percentage of EdU-negative (G0-arrested) nuclei per well, 72 h; higher = more G0 arrest; conditions: reference: sequence is the full UniProt precursor, the tested protein was the secreted form or ectodomain
MCF7 = assay: as above; conditions: reference: sequence is the full UniProt precursor, the tested protein was the secreted form or ectodomain
[1] = protein concentration 0.0261 µM
[2] = protein concentration 0.0294675 µM
[3] = protein concentration 0.294675 µM
[4] = protein concentration 0.0125714 µM
[5] = protein concentration 0.125714 µM
[6] = protein concentration 0.0228571 µM
[7] = protein concentration 0.228571 µM
[8] = protein concentration 0.02775 µM
[9] = protein concentration 0.2775 µM
[10] = protein concentration 0.03125 µM
[11] = protein concentration 0.3125 µM
[12] = protein concentration 0.018845 µM
[13] = protein concentration 0.18845 µM
[14] = protein concentration 0.012475 µM
[15] = protein concentration 0.12475 µM
[16] = protein concentration 0.02632 µM
[17] = protein concentration 0.2632 µM
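Note: secreted proteins added to cultured cells, EdU pulse at the end, nuclei found by Hoechst imaging, EdU status from nuclear versus surrounding ring intensity ratio, PBS as neutral control.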

## MRAPLLPPAPVVLSLLILGSGHYAAGLDLNDTYSGKREPFSGDHSADGFEVTSRSEMSSGSEISPVSEMPSSSEPSSGADYDYSEEYDNEPQIPGYIVDDSVRVEQVVKPPQNKTESENTSDKPKRKKKGGKNGKNRRNRKKKNPCNAEFQNFCIHGECKYIEHLEAVTCKCQQEYFGERCGEKSMKTHSMIDSSLSKIALAAIAAFMSAVILTAVAVITVQLRRQYVRKYEGEAEERKKLRQENGNVHAIA
hTERT-HMEC; [1]
  percentage of EdU-negative: 5.2 ± 0.8%
hTERT-HMEC; protein concentration 0.261 µM
  percentage of EdU-negative: 5.0893 ± 0.0048%
MCF7; [1]
  percentage of EdU-negative: 26.1 ± 0.68%
MCF7; protein concentration 0.261 µM
  percentage of EdU-negative: 25.9 ± 1.5%

## MRARPRPRPLWATVLALGALAGVGVGGPNICTTRGVSSCQQCLAVSPMCAWCSDEALPLGSPRCDLKENLLKDNCAPESIEFPVSEARVLEDRPLSDKGSGDSSQVTQVSPQRIALRLRPDDSKNFSIQVRQVEDYPVDIYYLMDLSYSMKDDLWSIQNLGTKLATQMRKLTSNLRIGFGAFVDKPVSPYMYISPPEALENPCYDMKTTCLPMFGYKHVLTLTDQVTRFNEEVKKQSVSRNRDAPEGGFDAIMQATVCDEKIGWRNDASHLLVFTTDAKTHIALDGRLAGIVQPNDGQCHVGSDNHYSASTTMDYPSLGLMTEKLSQKNINLIFAVTENVVNLYQNYSELIPGTTVGVLSMDSSNVLQLIVDAYGKIRSKVELEVRDLPEELSLSFNATCLNNEVIPGLKSCMGLKIGDTVSFSIEAKVRGCPQEKEKSFTIKPVGFKDSLIVQVTFDCDCACQAQAEPNSHRCNNGNGTFECGVCRCGPGWLGSQCECSEEDYRPSQQDECSPREGQPVCSQRGECLCGQCVCHSSDFGKITGKYCECDDFSCVRYKGEMCSGHGQCSCGDCLCDSDWTGYYCNCTTRTDTCMSSNGLLCSGRGKCECGSCVCIQPGSYGDTCEKCPTCPDACTFKKECVECKKFDRGALHDENTCNRYCRDEIESVKELKDTGKDAVNCTYKNEDDCVVRFQYYEDSSGKSILYVVEEPECPKGPDILVVLLSVMGAILLIGLAALLIWKLLITIHDRKEFAKFEEERARAKWDTANNPLYKEATSTFTNITYRGT
hTERT-HMEC; protein concentration 0.009 µM
  percentage of EdU-negative: 4.78 ± 0.31%
hTERT-HMEC; protein concentration 0.09 µM
  percentage of EdU-negative: 16.9 ± 4.2%
MCF7; protein concentration 0.009 µM
  percentage of EdU-negative: 26.2 ± 0.6%
MCF7; protein concentration 0.09 µM
  percentage of EdU-negative: 27.7 ± 1.2%

## MRARRGLLRLPRRSLLAALFFFSLSSSLLYFVYVAPGIVNTYLFMMQAQGILIRDNVRTIGAQVYEQVLRSAYAKRNSSVNDSDYPLDLNHSETFLQTTTFLPEDFTYFANHTCPERLPSMKGPIDINMSEIGMDYIHELFSKDPTIKLGGHWKPSDCMPRWKVAILIPFRNRHEHLPVLFRHLLPMLQRQRLQFAFYVVEQVGTQPFNRAMLFNVGFQEAMKDLDWDCLIFHDVDHIPESDRNYYGCGQMPRHFATKLDKYMYLLPYTEFFGGVSGLTVEQFRKINGFPNAFWGWGGEDDDLWNRVQNAGYSVSRPEGDTGKYKSIPHHHRGEVQFLGRYALLRKSKERQGLDGLNNLNYFANITYDALYKNITVNLTPELAQVNEY
hTERT-HMEC; protein concentration 0.016 µM
  percentage of EdU-negative: 5.58 ± 0.37%
hTERT-HMEC; protein concentration 0.16 µM
  percentage of EdU-negative: 20.8 ± 1.2%
MCF7; protein concentration 0.016 µM
  percentage of EdU-negative: 24.5 ± 0.93%
MCF7; protein concentration 0.16 µM
  percentage of EdU-negative: 30.8 ± 1.6%

## MRAWIFFLLCLAGRALAAPQQEALPDETEVVEETVAEVTEVSVGANPVQVEVGEFDDGAEETEEEVVAENPCQNHHCKHGKVCELDENNTPMCVCQDPTSCPAPIGEFEKVCSNDNKTFDSSCHFFATKCTLEGTKKGHKLHLDYIGPCKYIPPCLDSELTEFPLRMRDWLKNVLVTLYERDEDNNLLTEKQKLRVKKIHENEKRLEAGDHPVELLARDFEKNYNMYIFPVHWQFGQLDQHPIDGYLSHTELAPLRAPLIPMEHCTTRFFETCDLDNDKYIALDEWAGCFGIKQKDIDKDLVI
hTERT-HMEC; [2]
  percentage of EdU-negative: 4.83 ± 0.18%
hTERT-HMEC; [3]
  percentage of EdU-negative: 5.23 ± 0.79%
MCF7; [2]
  percentage of EdU-negative: 26.73 ± 0.018%
MCF7; [3]
  percentage of EdU-negative: 24.8 ± 0.39%

## MRENMARGPCNAPRWASLMVLVAIGTAVTAAVNPGVVVRISQKGLDYASQQGTAALQKELKRIKIPDYSDSFKIKHLGKGHYSFYSMDIREFQLPSSQISMVPNVGLKFSISNANIKISGKWKAQKRFLKMSGNFDLSIEGMSISADLKLGSNPTSGKPTITCSSCSSHINSVHVHISKSKVGWLIQLFHKKIESALRNKMNSQVCEKVTNSVSSELQPYFQTLPVMTKIDSVAGINYGLVAPPATTAETLDVQMKGEFYSENHHNPPPFAPPVMEFPAAHDRMVYLGLSDYFFNTAGLVYQEAGVLKMTLRDDMIPKESKFRLTTKFFGTFLPEVAKKFPNMKIQIHVSASTPPHLSVQPTGLTFYPAVDVQAFAVLPNSSLASLFLIGMHTTGSMEVSAESNRLVGELKLDRLLLELKHSNIGPFPVELLQDIMNYIVPILVLPRVNEKLQKGFPLPTPARVQLYNVVLQPHQNFLLFGADVVYK
hTERT-HMEC; [4]
  percentage of EdU-negative: 6.02 ± 1.5%
hTERT-HMEC; [5]
  percentage of EdU-negative: 35.1 ± 4%
MCF7; [4]
  percentage of EdU-negative: 24.5 ± 2.8%
MCF7; [5]
  percentage of EdU-negative: 29.1 ± 5%

## MRERPRLGEDSSLISLFLQVVAFLAMVMGTHTYSHWPSCCPSKGQDTSEELLRWSTVPVPPLEPARPNRHPESCRASEDGPLNSRAISPWRYELDRDLNRLPQDLYHARCLCPHCVSLQTGSHMDPRGNSELLYHNQTVFYRRPCHGEKGTHKGYCLERRLYRVSLACVCVRPRVMG [Q9H293]
hTERT-HMEC; [6]
  percentage of EdU-negative: 5.07 ± 0.33%
hTERT-HMEC; [7]
  percentage of EdU-negative: 5.25 ± 1%
MCF7; [6]
  percentage of EdU-negative: 24 ± 0.49%
MCF7; [7]
  percentage of EdU-negative: 36.9 ± 1.7%

## MRFFCARCCSFGPEMPAVQLLLLACLVWDVGARTAQLRKANDQSGRCQYTFSVASPNESSCPEQSQAMSVIHNLQRDSSTQRLDLEATKARLSSLESLLHQLTLDQAARPQETQEGLQRELGTLRRERDQLETQTRELETAYSNLLRDKSVLEEEKKRLRQENENLARRLESSSQEVARLRRGQCPQTRDTARAVPPGSREVSTWNLDTLAFQELKSELTEVPASRILKESPSGYLRSGEGDTGCGELVWVGEPLTLRTAETITGKYGVWMRDPKPTYPYTQETTWRIDTVGTDVRQVFEYDLISQFMQGYPSKVHILPRPLESTGAVVYSGSLYFQGAESRTVIRYELNTETVKAEKEIPGAGYHGQFPYSWGGYTDIDLAVDEAGLWVIYSTDEAKGAIVLSKLNPENLELEQTWETNIRKQSVANAFIICGTLYTVSSYTSADATVNFAYDTGTGISKTLTIPFKNRYKYSSMIDYNPLEKKLFAWDNLNMVTYDIKLSKM
hTERT-HMEC; [8]
  percentage of EdU-negative: 5.22 ± 0.79%
hTERT-HMEC; [9]
  percentage of EdU-negative: 5.83 ± 0.68%
MCF7; [8]
  percentage of EdU-negative: 23.1 ± 3.6%
MCF7; [9]
  percentage of EdU-negative: 22.8 ± 0.49%

## MRFLAATFLLLALSTAAQAEPVQFKDCGSVDGVIKEVNVSPCPTQPCQLSKGQSYSVNVTFTSNIQSKSSKAVVHGILMGVPVPFPIPEPDGCKSGINCPIQKDKTYSYLNKLPVKSEYPSIKLVVEWQLQDDKNQSLFCWEIPVQIVSHL
hTERT-HMEC; [10]
  percentage of EdU-negative: 4.48 ± 0.41%
hTERT-HMEC; [11]
  percentage of EdU-negative: 5.49 ± 0.12%
MCF7; [10]
  percentage of EdU-negative: 25.6 ± 0.29%
MCF7; [11]
  percentage of EdU-negative: 27.1 ± 2%

## MRGAARAAWGRAGQPWPRPPAPGPPPPPLPLLLLLLAGLLGGAGAQYSSDRCSWKGSGLTHEAHRKEVEQVYLRCAAGAVEWMYPTGALIVNLRPNTFSPARHLTVCIRSFTDSSGANIYLEKTGELRLLVPDGDGRPGRVQCFGLEQGGLFVEATPQQDIGRRTTGFQYELVRRHRASDLHELSAPCRPCSDTEVLLAVCTSDFAVRGSIQQVTHEPERQDSAIHLRVSRLYRQKSRVFEPVPEGDGHWQGRVRTLLECGVRPGHGDFLFTGHMHFGEARLGCAPRFKDFQRMYRDAQERGLNPCEVGTD [Q641Q3]
hTERT-HMEC; [12]
  percentage of EdU-negative: 5.45 ± 1.1%
hTERT-HMEC; [13]
  percentage of EdU-negative: 18.2 ± 6%
MCF7; [12]
  percentage of EdU-negative: 26.1 ± 2.3%
MCF7; [13]
  percentage of EdU-negative: 35.6 ± 1.1%

## MRGANAWAPLCLLLAAATQLSRQQSPERPVFTCGGILTGESGFIGSEGFPGVYPPNSKCTWKITVPEGKVVVLNFRFIDLESDNLCRYDFVDVYNGHANGQRIGRFCGTFRPGALVSSGNKMMVQMISDANTAGNGFMAMFSAAEPNERGDQYCGGLLDRPSGSFKTPNWPDRDYPAGVTCVWHIVAPKNQLIELKFEKFDVERDNYCRYDYVAVFNGGEVNDARRIGKYCGDSPPAPIVSERNELLIQFLSDLSLTADGFIGHYIFRPKKLPTTTEQPVTTTFPVTTGLKPTVALCQQKCRRTGTLEGNYCSSDFVLAGTVITTITRDGSLHATVSIINIYKEGNLAIQQAGKNMSARLTVVCKQCPLLRRGLNYIIMGQVGEDGRGKIMPNSFIMMFKTKNQKLLDALKNKQC [Q9UKZ9]
hTERT-HMEC; [14]
  percentage of EdU-negative: 4.6 ± 0.68%
hTERT-HMEC; [15]
  percentage of EdU-negative: 7.45 ± 0.19%
MCF7; [14]
  percentage of EdU-negative: 25.27 ± 0.085%
MCF7; [15]
  percentage of EdU-negative: 25.1 ± 1.3%

## MRGLLVLSVLLGAVFGKEDFVGHQVLRISVADEAQVQKVKELEDLEHLQLDFWRGPAHPGSPIDVRVPFPSIQAVKIFLESHGISYETMIEDVQSLLDEEQEQMFAFRSRARSTDTFNYATYHTLEEIYDFLDLLVAENPHLVSKIQIGNTYEGRPIYVLKFSTGGSKRPAIWIDTGIHSREWVTQASGVWFAKKITQDYGQDAAFTAILDTLDIFLEIVTNPDGFAFTHSTNRMWRKTRSHTAGSLCIGVDPNRNWDAGFGLSGASSNPCSETYHGKFANSEVEVKSIVDFVKDHGNIKAFISIHSYSQLLMYPYGYKTEPVPDQDELDQLSKAAVTALASLYGTKFNYGSIIKAIYQASGSTIDWTYSQGIKYSFTFELRDTGRYGFLLPASQIIPTAKETWLALLTIMEHTLNHPY
hTERT-HMEC; [16]
  percentage of EdU-negative: 5.61 ± 0.74%
hTERT-HMEC; [17]
  percentage of EdU-negative: 8.13 ± 1.2%
MCF7; [16]
  percentage of EdU-negative: 25.44 ± 0.046%
MCF7; [17]
  percentage of EdU-negative: 27.3 ± 3%

— the supplement of paper PMC11316812
